Laboratory results taken from patent US20120219551A1 (MacroGenics, published 2012).

T1: CD32B (human, UniProt P31994 43-217)
T1 construct: extracellular domain; Soluble dimeric fusion as told for the ch4D5 BIAcore assays of section 7.7; also called FcγRIIB; FcγRII-B; not shown: hinge-CH2-CH3 domain of human IgG2
T1 sequence (looked up): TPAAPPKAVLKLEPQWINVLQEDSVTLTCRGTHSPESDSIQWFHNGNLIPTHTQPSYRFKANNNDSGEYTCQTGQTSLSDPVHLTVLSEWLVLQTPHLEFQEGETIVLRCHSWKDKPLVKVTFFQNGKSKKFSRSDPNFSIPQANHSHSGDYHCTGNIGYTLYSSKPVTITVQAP

T2: CD32A (131H) (human, UniProt P12318 34-217)
T2 construct: extracellular domain; Soluble dimeric fusion as told for the ch4D5 BIAcore assays of section 7.7; also called FcγRIIA 131H; not shown: hinge-CH2-CH3 domain of human IgG2
T2 sequence (looked up): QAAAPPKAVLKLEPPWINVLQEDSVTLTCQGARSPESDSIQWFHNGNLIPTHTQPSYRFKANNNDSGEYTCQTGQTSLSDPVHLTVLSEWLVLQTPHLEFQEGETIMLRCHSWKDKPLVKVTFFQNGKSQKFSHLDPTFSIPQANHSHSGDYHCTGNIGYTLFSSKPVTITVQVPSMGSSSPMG

T3: CD32A (131R) (human, UniProt P12318 34-217)
T3 construct: extracellular domain; Soluble dimeric fusion as told for FcγRIIA in section 7.7 (there for 131H); also called FcγRIIA 131R; not shown: hinge-CH2-CH3 domain of human IgG2
T3 sequence (looked up): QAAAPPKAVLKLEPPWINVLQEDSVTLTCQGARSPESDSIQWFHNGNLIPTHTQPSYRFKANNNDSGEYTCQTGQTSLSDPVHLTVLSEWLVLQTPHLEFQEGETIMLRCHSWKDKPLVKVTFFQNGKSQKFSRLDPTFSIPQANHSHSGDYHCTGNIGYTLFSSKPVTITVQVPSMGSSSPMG

T4: CD32B-G2Ag (human, UniProt P31994 43-217)
T4 construct: extracellular domain; Soluble dimeric protein as told for Section 7.7; also called FcγRIIB-Fc fusion protein; 2bFcagl; not shown: human IgG2 hinge-CH2-CH3 domain
T4 sequence (looked up): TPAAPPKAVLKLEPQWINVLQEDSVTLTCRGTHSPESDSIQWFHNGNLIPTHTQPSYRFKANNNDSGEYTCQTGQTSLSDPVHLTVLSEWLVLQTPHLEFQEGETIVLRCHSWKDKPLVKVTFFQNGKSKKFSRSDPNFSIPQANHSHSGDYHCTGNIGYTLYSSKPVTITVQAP

T5: CD32A-G2Ag (human, UniProt P12318 34-217)
T5 construct: extracellular domain; Soluble dimeric protein as told for Section 7.7 (there 131H); also called FcγRIIA-Fc fusion protein; 2aFcagl; not shown: human IgG2 hinge-CH2-CH3 domain
T5 sequence (looked up): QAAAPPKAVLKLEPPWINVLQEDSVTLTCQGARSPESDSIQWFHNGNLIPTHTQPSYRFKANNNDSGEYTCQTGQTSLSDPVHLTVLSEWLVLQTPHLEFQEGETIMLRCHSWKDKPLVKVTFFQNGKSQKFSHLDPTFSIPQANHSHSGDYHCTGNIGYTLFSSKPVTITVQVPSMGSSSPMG


Experiments:
[1] = molecular target: T6, FcγRIIIA, soluble monomeric protein (extracellular region joined to the linker-AVITAG sequence) (human, UniProt P08637 17-208); experiment: ELISA
T6 construct: extracellular domain; also called FcRIIIA; FcR3A

[2] = molecular target: T6, FcγRIIIA, soluble monomeric protein …; experiment: ELISA; remark: listed apart in the source
CD16A (158V) = molecular target: T7, CD16A (158V) (human, UniProt P08637 17-208); experiment: off-rate ratio vs wild-type Fc (BIAcore per the filing's koff tables)
T7 construct: extracellular domain; Soluble monomeric construct as told for the ch4D5 BIAcore assays of section 7.7; also called FcγRIIIA 158V; FcγRIIIA V158

CD16A (158F) = molecular target: T8, CD16A (158F) (human, UniProt P08637 17-208); experiment: as above
T8 construct: extracellular domain; Soluble monomeric construct as told for the ch4D5 BIAcore assays of section 7.7

CD32B = molecular target: T1, CD32B; experiment: as above
CD32A (131H) = molecular target: T2, CD32A (131H); experiment: as above
CD32A (131R) = molecular target: T3, CD32A (131R); experiment: as above
CD16A(V158) = molecular target: T9, CD16A(V158) (human, UniProt P08637 17-208); experiment: relative off-rate wt/variant; method not given (BIAcore elsewhere)
T9 construct: extracellular domain; Construct as told for the BIAcore assays of Section 7.7; also called FcγRIIIA 158V; 3aV158

CD16A(F158) = molecular target: T10, CD16A(F158) (human, UniProt P08637 17-208); experiment: as above
T10 construct: extracellular domain; Construct as told for the BIAcore assays of Section 7.7; also called 3aF158

CD32B-G2Ag = molecular target: T4, CD32B-G2Ag; experiment: as above
CD32A-G2Ag = molecular target: T5, CD32A-G2Ag; experiment: as above

T8 sequence (P08637 17-208): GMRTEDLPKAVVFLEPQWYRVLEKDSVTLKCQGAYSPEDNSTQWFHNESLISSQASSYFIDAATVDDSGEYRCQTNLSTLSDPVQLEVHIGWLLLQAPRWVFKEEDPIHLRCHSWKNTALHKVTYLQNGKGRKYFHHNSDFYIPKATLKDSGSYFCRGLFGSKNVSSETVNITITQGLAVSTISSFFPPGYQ
T10 sequence (P08637 17-208): as above
T7 sequence (P08637 17-208 F176V): as the sequence (P08637 17-208) above, with F160V counted along it
T9 sequence (P08637 17-208 F176V): as the sequence (P08637 17-208) above, with F160V counted along it
T6 sequence (P08637 17-208 F176V limits assumed, form in doubt): as the sequence (P08637 17-208) above, with F160V counted along it

Binder	ELISA binding, fold vs WT [1] [fold]	fold change vs WT [2] [fold]	Wild-Type Koff/Mutant Koff (CD16A (158V))	Wild-Type Koff/Mutant Koff (CD16A (158F))	Wild-Type Koff/Mutant Koff (CD32B)	Wild-Type Koff/Mutant Koff (CD32A (131H))	Wild-Type Koff/Mutant Koff (CD32A (131R))	Koff ratio (wt/mut) (CD16A(V158))	Koff ratio (wt/mut) (CD16A(F158))	Koff ratio (wt/mut) (CD32B-G2Ag)	Koff ratio (wt/mut) (CD32A-G2Ag)
Fc variant K334E, T359N, T366S (antibody) ASTKGPSVFPLAPSSKSTSGGTAALGCLVKDYFPEPVTVSWNSGALTSGVHTFPAVLQSSGLYSLSSVVTVPSSSLGTQTYICNVNHKPSNTKVDKKVEPKSCDKTHTCPPCPAPELLGGPSVFLFPPKPKDTLMISRTPEVTCVVVDVSHEDPEVKFNWYVDGVEVHNAKTKPREEQYNSTYRVVSVLTVLHQDWLNGKEYKCKVSNKALPAPIEETISKAKGQPREPQVYTLPPSRDELNKNQVSLSCLVKGFYPSDIAVEWESNGQPENNYKTTPPVLDSDGSFFLYSKLTVDKSRWQQGNVFSCSVMHEALHNHYTQKSLSLSPGK	1.5	1.5									
ch4D5-FcMT2 (antibody, human IgG1, kappa, Anti-Her2/neu; also called ch45D4-FcMT2; L235V F243L R292P Y300L P396L) heavy: QVQLQQSGPELVKPGASLKLSCTASGFNIKDTYIHWVKQRPEQGLEWIGRIYPTNGYTRYDPKFQDKATITADTSSNTAYLQVSRLTSEDTAVYYCSRWGGDGFYAMDYWGQGASVTVSSASTKGPSVFPLAPSSKSTSGGTAALGCLVKDYFPEPVTVSWNSGALTSGVHTFPAVLQSSGLYSLSSVVTVPSSSLGTQTYICNVNHKPSNTKVDKRVEPKSCDKTHTCPPCPAPELVGGPSVFLLPPKPKDTLMISRTPEVTCVVVDVSHEDPEVKFNWYVDGVEVHNAKTKPPEEQYNSTLRVVSVLTVLHQDWLNGKEYKCKVSNKALPAPIEKTISKAKGQPREPQVYTLPPSRDELTKNQVSLTCLVKGFYPSDIAVEWESNGQPENNYKTTPLVLDSDGSFFLYSKLTVDKSRWQQGNVFSCSVMHEALHNHYTQKSLSLSPGK light: DIVMTQSHKFMSTSVGDRVSITCKASQDVNTAVAWYQQKPGHSPKLLIYSASFRYTGVPDRFTGSRSGTDFTFTISSVQAEDLAVYYCQQHYTTPPTFGGGTKVEIKRTVAAPSVFIFPPSDEQLKSGTASVVCLLNNFYPREAKVQWKVDNALQSGNSQESVTEQDSKDSTYSLSSTLTLSKADYEKHKVYACEVTHQGLSSPVTKSFNRGEC			6.1	4.8	0.4	1.3	0.4				
ch4D5 Fc variant L235P, F243L, R292P, Y300L, P396L (antibody, One of the series of variants of ch4D5-FcMT2) heavy: QVQLQQSGPELVKPGASLKLSCTASGFNIKDTYIHWVKQRPEQGLEWIGRIYPTNGYTRYDPKFQDKATITADTSSNTAYLQVSRLTSEDTAVYYCSRWGGDGFYAMDYWGQGASVTVSSASTKGPSVFPLAPSSKSTSGGTAALGCLVKDYFPEPVTVSWNSGALTSGVHTFPAVLQSSGLYSLSSVVTVPSSSLGTQTYICNVNHKPSNTKVDKRVEPKSCDKTHTCPPCPAPELPGGPSVFLLPPKPKDTLMISRTPEVTCVVVDVSHEDPEVKFNWYVDGVEVHNAKTKPPEEQYNSTLRVVSVLTVLHQDWLNGKEYKCKVSNKALPAPIEKTISKAKGQPREPQVYTLPPSRDELTKNQVSLTCLVKGFYPSDIAVEWESNGQPENNYKTTPLVLDSDGSFFLYSKLTVDKSRWQQGNVFSCSVMHEALHNHYTQKSLSLSPGK light: DIVMTQSHKFMSTSVGDRVSITCKASQDVNTAVAWYQQKPGHSPKLLIYSASFRYTGVPDRFTGSRSGTDFTFTISSVQAEDLAVYYCQQHYTTPPTFGGGTKVEIKRTVAAPSVFIFPPSDEQLKSGTASVVCLLNNFYPREAKVQWKVDNALQSGNSQESVTEQDSKDSTYSLSSTLTLSKADYEKHKVYACEVTHQGLSSPVTKSFNRGEC				2.5	0.2	0.7	0.2				
ch4D5 Fc Variants 19 and 20 (L235V, F243L, R292P, Y300L, P396L) (antibody, copies: 2 + 2) heavy: QVQLQQSGPELVKPGASLKLSCTASGFNIKDTYIHWVKQRPEQGLEWIGRIYPTNGYTRYDPKFQDKATITADTSSNTAYLQVSRLTSEDTAVYYCSRWGGDGFYAMDYWGQGASVTVSSASTKGPSVFPLAPSSKSTSGGTAALGCLVKDYFPEPVTVSWNSGALTSGVHTFPAVLQSSGLYSLSSVVTVPSSSLGTQTYICNVNHKPSNTKVDKRVEPKSCDKTHTCPPCPAPELVGGPSVFLLPPKPKDTLMISRTPEVTCVVVDVSHEDPEVKFNWYVDGVEVHNAKTKPPEEQYNSTLRVVSVLTVLHQDWLNGKEYKCKVSNKALPAPIEKTISKAKGQPREPQVYTLPPSRDELTKNQVSLTCLVKGFYPSDIAVEWESNGQPENNYKTTPLVLDSDGSFFLYSKLTVDKSRWQQGNVFSCSVMHEALHNHYTQKSLSLSPGK light: DIVMTQSHKFMSTSVGDRVSITCKASQDVNTAVAWYQQKPGHSPKLLIYSASFRYTGVPDRFTGSRSGTDFTFTISSVQAEDLAVYYCQQHYTTPPTFGGGTKVEIKRTVAAPSVFIFPPSDEQLKSGTASVVCLLNNFYPREAKVQWKVDNALQSGNSQESVTEQDSKDSTYSLSSTLTLSKADYEKHKVYACEVTHQGLSSPVTKSFNRGEC								5.3	4.5	0.5	1.3
ch4D5 Fc variant L235T, F243L, R292P, Y300L, P396L (antibody, One of the series of variants of ch4D5-FcMT2) heavy: QVQLQQSGPELVKPGASLKLSCTASGFNIKDTYIHWVKQRPEQGLEWIGRIYPTNGYTRYDPKFQDKATITADTSSNTAYLQVSRLTSEDTAVYYCSRWGGDGFYAMDYWGQGASVTVSSASTKGPSVFPLAPSSKSTSGGTAALGCLVKDYFPEPVTVSWNSGALTSGVHTFPAVLQSSGLYSLSSVVTVPSSSLGTQTYICNVNHKPSNTKVDKRVEPKSCDKTHTCPPCPAPELTGGPSVFLLPPKPKDTLMISRTPEVTCVVVDVSHEDPEVKFNWYVDGVEVHNAKTKPPEEQYNSTLRVVSVLTVLHQDWLNGKEYKCKVSNKALPAPIEKTISKAKGQPREPQVYTLPPSRDELTKNQVSLTCLVKGFYPSDIAVEWESNGQPENNYKTTPLVLDSDGSFFLYSKLTVDKSRWQQGNVFSCSVMHEALHNHYTQKSLSLSPGK light: DIVMTQSHKFMSTSVGDRVSITCKASQDVNTAVAWYQQKPGHSPKLLIYSASFRYTGVPDRFTGSRSGTDFTFTISSVQAEDLAVYYCQQHYTTPPTFGGGTKVEIKRTVAAPSVFIFPPSDEQLKSGTASVVCLLNNFYPREAKVQWKVDNALQSGNSQESVTEQDSKDSTYSLSSTLTLSKADYEKHKVYACEVTHQGLSSPVTKSFNRGEC			4.2	2.8	0.3	0.9	0.3				
Antibody 2B6 3.5 Fc Variant 49 (F243L, R292P, Y300L, V305I, P396L) (antibody, Fc variant of m46; also called h2B6 3.5 0088; copies: 2 + 2) heavy: QVQLVQSGAEVKKPGASVKVSCKASGYTFTNYWIHWVRQAPGQGLEWIGVIDPSDTYPNYNKKFKGRVTMTVDTSTSTAYMELRSLRSDDTAVYYCARNGDSDYYSGMDYWGQGTTVTVSSASTKGPSVFPLAPSSKSTSGGTAALGCLVKDYFPEPVTVSWNSGALTSGVHTFPAVLQSSGLYSLSSVVTVPSSSLGTQTYICNVNHKPSNTKVDKRVEPKSCDKTHTCPPCPAPELLGGPSVFLLPPKPKDTLMISRTPEVTCVVVDVSHEDPEVKFNWYVDGVEVHNAKTKPPEEQYNSTLRVVSILTVLHQDWLNGKEYKCKVSNKALPAPIEKTISKAKGQPREPQVYTLPPSRDELTKNQVSLTCLVKGFYPSDIAVEWESNGQPENNYKTTPLVLDSDGSFFLYSKLTVDKSRWQQGNVFSCSVMHEALHNHYTQKSLSLSPGK light: EIVLTQSPDFQSVTPKEKVTFTCRTSQSIGTNIHWYQQKPDQSPKLLIKEVSESISGVPSRFSGSGSGTDFTLTINSLEAEDAATYYCQQSNTWPFTFGGGTKVEIKRTVAAPSVFIFPPSDEQLKSGTASVVCLLNNFYPREAKVQWKVDNALQSGNSQESVTEQDSKDSTYSLSSTLTLSKADYEKHKVYACEVTHQGLSSPVTKSFNRGEC								10.1	8.3	3.2	1.4
